The target of test [1] is 48d.cl IC, 3 plasmid version (Fab-Fab-crosslinked, K126C) (HIV-1 strain BG505). Put plainly: native gel or EMSA.
For test [2], the target named is 48d.cl IC, fusion version (gpCore + 48d heavy chain fusion, Fab-Fab-crosslinked K126C) (HIV-1 strain BG505). The experiment in a line: native gel or EMSA. (In general: Mobility shift assays separate free from complexed probe on a gel.)

Take wtVRC01 (antibody): the stoichiometry N in test [1] and in test [2] was 1 each time.

Regarding wtA32 (antibody), the stoichiometry N in test [1] and in test [2] was 2 throughout.
